T1: human FcRH5 protein fragment (soluble) (human, UniProt Q96RD9 16-851)
T1 construct: whole entry named; also called soluble human FcRH5; Human FcRH5 (BIACORE analyte)
T1 sequence: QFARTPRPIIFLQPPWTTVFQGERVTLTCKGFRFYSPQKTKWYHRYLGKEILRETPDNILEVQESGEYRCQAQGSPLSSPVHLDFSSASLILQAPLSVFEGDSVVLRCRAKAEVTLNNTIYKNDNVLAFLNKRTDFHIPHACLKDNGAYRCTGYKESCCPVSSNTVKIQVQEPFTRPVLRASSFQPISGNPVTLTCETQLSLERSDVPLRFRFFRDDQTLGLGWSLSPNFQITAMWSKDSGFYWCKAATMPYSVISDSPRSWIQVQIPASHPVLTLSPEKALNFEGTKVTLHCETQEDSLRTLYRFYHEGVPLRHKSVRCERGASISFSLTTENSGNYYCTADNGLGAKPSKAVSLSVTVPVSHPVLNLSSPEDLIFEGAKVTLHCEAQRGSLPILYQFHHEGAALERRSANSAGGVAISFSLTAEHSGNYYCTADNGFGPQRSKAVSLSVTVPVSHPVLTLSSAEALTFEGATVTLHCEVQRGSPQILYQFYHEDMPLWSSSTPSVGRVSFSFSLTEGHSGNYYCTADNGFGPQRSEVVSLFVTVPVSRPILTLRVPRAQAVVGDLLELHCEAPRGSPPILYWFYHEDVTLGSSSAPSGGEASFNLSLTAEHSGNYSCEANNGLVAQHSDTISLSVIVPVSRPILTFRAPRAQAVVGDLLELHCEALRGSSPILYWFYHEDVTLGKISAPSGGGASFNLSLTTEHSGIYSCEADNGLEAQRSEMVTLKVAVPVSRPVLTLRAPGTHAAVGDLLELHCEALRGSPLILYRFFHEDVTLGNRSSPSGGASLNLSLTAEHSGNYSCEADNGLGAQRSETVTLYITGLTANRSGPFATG


Tests used:
[1] = biological target: T1, human FcRH5 protein fragment (soluble); test: SPR, hIgG capture, screening
Method: (§1) Briefly, a human IgG capture surface was generated on a Series S CM5 chip using amine coupling and the human IgG capture kit (GE Life Sciences, Piscataway, NJ). Test antibodies were then captured on flow cells 2, 3, or 4, with flow cell 1 used as a reference. An FcRH5 protein fragment was used as the analyte, with a flow rate of […]. Between injections the capture surface was regenerated by a 30-second injection of 3M magnesium chloride or 10 mM glycine, pH 1.5. Interactions were assessed at 25° C. in 10 mM HEPES pH7.4, 150 mM NaCl, and 0.05% Tween 20 (HBSP). Reference data from the reference flow cell and from injection of buffer alone were subtracted prior to kinetic analysis. Kinetic information was calculated by fitting data to a 1:1 binding model. Reference subtraction and data fitting were performed using BIAevaluation software (GE Life Sciences, Piscataway, NJ).
(§2) For affinity screening of HVR-H2 Trp52 and Met64 variants (Table 7), antibodies were expressed by transient transfection of Expi293 cells and purified using tip columns that were custom packed with affinity resin MabSelect SuRe (Glygen Corp., Columbia, MD & GE Life Sciences, Piscataway, NJ). […] Binding of FcRH5 protein fragment to captured antibodies was monitored at 100 nM and 500 nM. Association and dissociation were monitored at a flow rate of 40 μl/min, for 180 s and 300 s, respectively.

[2] = biological target: T1, human FcRH5 protein fragment (soluble); test: SPR (BIACORE), IgG captured via anti-human IgG, FcRH5 protein fragment as analyte (100 and 500 nM)
Method: as §1, §2

Row | Binder | Kd [1] [nM] | Kd [2] [nM]
1 | hu1G7.v1 heavy chain M64L with light chain of hu1G7.v1.6 (antibody, V domains shown, human IgG) VH: EVQLVESGPGLVKPSETLSLTCTVSGFSLTRFGVHWVRQPPGKGLEWLGVIWRGGSTDYNAAFLSRLTISKDNSKNQVSLKLSSVTAADTAVYYCSNHYYGSSDYALDNWGQGTLVTVSS VL: DIQMTQSPSSLSASVGDRVTITCKASQDVSNIVVWFQQKPGKAPKLLIYSGYYRYSGVPSRFSGSGSGTDFTLTISSLQPEDFATYYCQQQYQPPYTFGQGTKVEIK | 2.6 | 2.6
2 | hu1G7.v1 heavy chain W52H with light chain of hu1G7.v1 (antibody, V domains shown, human IgG) VH: EVQLVESGPGLVKPSETLSLTCTVSGFSLTRFGVHWVRQPPGKGLEWLGVIHRGGSTDYNAAFMSRLTISKDNSKNQVSLKLSSVTAADTAVYYCSNHYYGSSDYALDNWGQGTLVTVSS VL: DIQMTQSPSSLSASVGDRVTITCKASQDVSNIVVWFQQKPGKSPKLLIYSASYRYTGVPSRFSGSGSGTDFTLTISSLQPEDFATYYCQQHYSSPYTFGQGTKVEIK | 120 | 120
3 | hu1G7.v1 heavy chain W52H with light chain of hu1G7.v1.6 (antibody, V domains shown, human IgG) VH: EVQLVESGPGLVKPSETLSLTCTVSGFSLTRFGVHWVRQPPGKGLEWLGVIHRGGSTDYNAAFMSRLTISKDNSKNQVSLKLSSVTAADTAVYYCSNHYYGSSDYALDNWGQGTLVTVSS VL: DIQMTQSPSSLSASVGDRVTITCKASQDVSNIVVWFQQKPGKAPKLLIYSGYYRYSGVPSRFSGSGSGTDFTLTISSLQPEDFATYYCQQQYQPPYTFGQGTKVEIK | 110 | 109
4 | hu1G7.v1 heavy chain W52H with light chain of hu1G7.v1.3 (antibody, V domains shown, human IgG) VH: EVQLVESGPGLVKPSETLSLTCTVSGFSLTRFGVHWVRQPPGKGLEWLGVIHRGGSTDYNAAFMSRLTISKDNSKNQVSLKLSSVTAADTAVYYCSNHYYGSSDYALDNWGQGTLVTVSS VL: DIQMTQSPSSLSASVGDRVTITCKASQDVRNIVVWFQQKPGKAPKLLIYSGSYRYSGVPSRFSGSGSGTDFTLTISSLQPEDFATYYCQQQYSPPYTFGQGTKVEIK | 66 | 65.5
5 | hu1G7.v1 heavy chain W52H with light chain of hu1G7.v1.5 (antibody, V domains shown, human IgG) VH: EVQLVESGPGLVKPSETLSLTCTVSGFSLTRFGVHWVRQPPGKGLEWLGVIHRGGSTDYNAAFMSRLTISKDNSKNQVSLKLSSVTAADTAVYYCSNHYYGSSDYALDNWGQGTLVTVSS VL: DIQMTQSPSSLSASVGDRVTITCKASQDVSNIVVWFQQKPGKSPKLLIYSGYYRYTGVPSRFSGSGSGTDFTLTISSLQPEDFATYYCQQQFQPPYTFGQGTKVEIK | 67 | 67.3
6 | hu1G7.v1 heavy chain M64V with light chain of hu1G7.v1.3 (antibody, V domains shown, human IgG) VH: EVQLVESGPGLVKPSETLSLTCTVSGFSLTRFGVHWVRQPPGKGLEWLGVIWRGGSTDYNAAFVSRLTISKDNSKNQVSLKLSSVTAADTAVYYCSNHYYGSSDYALDNWGQGTLVTVSS VL: DIQMTQSPSSLSASVGDRVTITCKASQDVRNIVVWFQQKPGKAPKLLIYSGSYRYSGVPSRFSGSGSGTDFTLTISSLQPEDFATYYCQQQYSPPYTFGQGTKVEIK | 2.5 | 2.5
7 | hu1G7.v1 heavy chain W52F with light chain of hu1G7.v1.6 (antibody, V domains shown, human IgG) VH: EVQLVESGPGLVKPSETLSLTCTVSGFSLTRFGVHWVRQPPGKGLEWLGVIFRGGSTDYNAAFMSRLTISKDNSKNQVSLKLSSVTAADTAVYYCSNHYYGSSDYALDNWGQGTLVTVSS VL: DIQMTQSPSSLSASVGDRVTITCKASQDVSNIVVWFQQKPGKAPKLLIYSGYYRYSGVPSRFSGSGSGTDFTLTISSLQPEDFATYYCQQQYQPPYTFGQGTKVEIK | 81 | 81.4
8 | hu1G7.v1 heavy chain W52F with light chain of hu1G7.v1.5 (antibody, V domains shown, human IgG) VH: EVQLVESGPGLVKPSETLSLTCTVSGFSLTRFGVHWVRQPPGKGLEWLGVIFRGGSTDYNAAFMSRLTISKDNSKNQVSLKLSSVTAADTAVYYCSNHYYGSSDYALDNWGQGTLVTVSS VL: DIQMTQSPSSLSASVGDRVTITCKASQDVSNIVVWFQQKPGKSPKLLIYSGYYRYTGVPSRFSGSGSGTDFTLTISSLQPEDFATYYCQQQFQPPYTFGQGTKVEIK | 48 | 47.5
9 | hu1G7.v1 heavy chain M64V with light chain of hu1G7.v1.5 (antibody, V domains shown, human IgG) VH: EVQLVESGPGLVKPSETLSLTCTVSGFSLTRFGVHWVRQPPGKGLEWLGVIWRGGSTDYNAAFVSRLTISKDNSKNQVSLKLSSVTAADTAVYYCSNHYYGSSDYALDNWGQGTLVTVSS VL: DIQMTQSPSSLSASVGDRVTITCKASQDVSNIVVWFQQKPGKSPKLLIYSGYYRYTGVPSRFSGSGSGTDFTLTISSLQPEDFATYYCQQQFQPPYTFGQGTKVEIK | 2.5 | 2.5
10 | hu1G7.v1 heavy chain M64V with light chain of hu1G7.v1.6 (antibody, V domains shown, human IgG) VH: EVQLVESGPGLVKPSETLSLTCTVSGFSLTRFGVHWVRQPPGKGLEWLGVIWRGGSTDYNAAFVSRLTISKDNSKNQVSLKLSSVTAADTAVYYCSNHYYGSSDYALDNWGQGTLVTVSS VL: DIQMTQSPSSLSASVGDRVTITCKASQDVSNIVVWFQQKPGKAPKLLIYSGYYRYSGVPSRFSGSGSGTDFTLTISSLQPEDFATYYCQQQYQPPYTFGQGTKVEIK | 2.7 | 2.7
11 | hu1G7.v1 heavy chain W52F with light chain of hu1G7.v1.3 (antibody, V domains shown, human IgG) VH: EVQLVESGPGLVKPSETLSLTCTVSGFSLTRFGVHWVRQPPGKGLEWLGVIFRGGSTDYNAAFMSRLTISKDNSKNQVSLKLSSVTAADTAVYYCSNHYYGSSDYALDNWGQGTLVTVSS VL: DIQMTQSPSSLSASVGDRVTITCKASQDVRNIVVWFQQKPGKAPKLLIYSGSYRYSGVPSRFSGSGSGTDFTLTISSLQPEDFATYYCQQQYSPPYTFGQGTKVEIK | 180 | 177
12 | hu1G7.v1 heavy chain W52F with light chain of hu1G7.v1 (antibody, V domains shown, human IgG) VH: EVQLVESGPGLVKPSETLSLTCTVSGFSLTRFGVHWVRQPPGKGLEWLGVIFRGGSTDYNAAFMSRLTISKDNSKNQVSLKLSSVTAADTAVYYCSNHYYGSSDYALDNWGQGTLVTVSS VL: DIQMTQSPSSLSASVGDRVTITCKASQDVSNIVVWFQQKPGKSPKLLIYSASYRYTGVPSRFSGSGSGTDFTLTISSLQPEDFATYYCQQHYSSPYTFGQGTKVEIK | 250 | 254
13 | hu1G7.v1 heavy chain W52H with light chain of hu1G7.v1.4 (antibody, V domains shown, human IgG) VH: EVQLVESGPGLVKPSETLSLTCTVSGFSLTRFGVHWVRQPPGKGLEWLGVIHRGGSTDYNAAFMSRLTISKDNSKNQVSLKLSSVTAADTAVYYCSNHYYGSSDYALDNWGQGTLVTVSS VL: DIQMTQSPSSLSASVGDRVTITCKASQDVRNLVVWFQQKPGKAPKLLIYSGSYRYSGVPSRFSGSGSGTDFTLTISSLQPEDFATYYCQQHYSPPYTFGQGTKVEIK | 60 | 60.4
14 | hu1G7.v1 heavy chain W52F with light chain of hu1G7.v1.4 (antibody, V domains shown, human IgG) VH: EVQLVESGPGLVKPSETLSLTCTVSGFSLTRFGVHWVRQPPGKGLEWLGVIFRGGSTDYNAAFMSRLTISKDNSKNQVSLKLSSVTAADTAVYYCSNHYYGSSDYALDNWGQGTLVTVSS VL: DIQMTQSPSSLSASVGDRVTITCKASQDVRNLVVWFQQKPGKAPKLLIYSGSYRYSGVPSRFSGSGSGTDFTLTISSLQPEDFATYYCQQHYSPPYTFGQGTKVEIK | 120 | 119
15 | hu1G7.v1 heavy chain M64V with light chain of hu1G7.v1.7 (antibody, V domains shown, human IgG) VH: EVQLVESGPGLVKPSETLSLTCTVSGFSLTRFGVHWVRQPPGKGLEWLGVIWRGGSTDYNAAFVSRLTISKDNSKNQVSLKLSSVTAADTAVYYCSNHYYGSSDYALDNWGQGTLVTVSS VL: DIQMTQSPSSLSASVGDRVTITCKASQDVRNLVVWFQQKPGKAPKLLIYSGYYRYTGVPSRFSGSGSGTDFTLTISSLQPEDFATYYCQQHYQPPYTFGQGTKVEIK | 2.5 | 2.5
16 | hu1G7.v1 heavy chain W52F with light chain of hu1G7.v1.7 (antibody, V domains shown, human IgG) VH: EVQLVESGPGLVKPSETLSLTCTVSGFSLTRFGVHWVRQPPGKGLEWLGVIFRGGSTDYNAAFMSRLTISKDNSKNQVSLKLSSVTAADTAVYYCSNHYYGSSDYALDNWGQGTLVTVSS VL: DIQMTQSPSSLSASVGDRVTITCKASQDVRNLVVWFQQKPGKAPKLLIYSGYYRYTGVPSRFSGSGSGTDFTLTISSLQPEDFATYYCQQHYQPPYTFGQGTKVEIK | 77 | 76.6
